The record followed here is PMC314469, “Protein Interaction Networks by Proteome Peptide Scanning” (PLoS Biology, 2004).

The target in assay [1] is endophilin SH3 (SH3G2_HUMAN), Q99962. Description: SPOT array.
Assay [2] concerns the target T1, amphyphisin SH3 (AMPH_HUMAN), P49418.
T1 chain: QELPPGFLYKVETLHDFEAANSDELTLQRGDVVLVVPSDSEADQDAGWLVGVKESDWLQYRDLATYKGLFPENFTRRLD
The assay can be described thus: SPOT array.

RSRSPGRPPKSARR [Q14739 82-96]: the normalised SPOT signal, Boehringer light units (BLU); mean over the file's lines of this peptide amounted to 3690 in assay [1] and 154 in assay [2].
Taken in the same sequence, the figures for RSWWPQRPGRWLSR [Q9NRK9 487-500] were 558 and 3180.
Taken in the same sequence, the figures for RTLGLRRPVHSSSI [Q9P1Y6 400-413] were 49.2 and 20.6.
For RSQTPERPAKKIRE [Q9Y2N3 421-434], the values for the normalised SPOT signal, Boehringer light units (BLU); mean over the file's lines of this peptide in assay [1] and in assay [2] were 587 and 283, respectively.
Taken in the same sequence, the figures for RTPAPRRPLQRRRP [Q9GZW5 220-233] were 12000 and 789.
On to AVPPPSRPQRLSSL [Q9NU00 50-63], for which the normalised SPOT signal, Boehringer light units (BLU); mean over the file's lines of this peptide in assay [1] stood at 7470; in assay [2] it was 15600.
RTPTPDRPPRSAWG [Q9H0S3 22-35]: the normalised SPOT signal, Boehringer light units (BLU); mean over the file's lines of this peptide stood at 395 in assay [1] and 2030 in assay [2].
RSRVPVRPPQQYSD [Q92560 382-396]: the results for the normalised SPOT signal, Boehringer light units (BLU); mean over the file's lines of this peptide in assay [1] and in assay [2] were 831 and 133, respectively.
Regarding RSSGPERPPHGLPL [Q9NPP7 72-86], the normalised SPOT signal, Boehringer light units (BLU); mean over the file's lines of this peptide in assay [1] was found to be 752; in assay [2], 39.9.
Taken in the same sequence, the figures for RTKRFKRPQFSPTG [Q96CC9 51-64] were 12.5 and 33.7.
Taken in the same sequence, the figures for RVHRLPRPLKQRML [Q9UQ05 500-513] were 121 and 165.
For the molecule AVQFLRRPKTITRV [O95473 15-28], the normalised SPOT signal, Boehringer light units (BLU); mean over the file's lines of this peptide in assay [1] stood at 117; in assay [2], 15.3.
Consider RTEGFWRPLRGVNV [Q9NYZ2 96-109], for which the normalised SPOT signal, Boehringer light units (BLU); mean over the file's lines of this peptide in assay [1] was determined as 107; in assay [2] it was 952.
For the molecule RVEELSRPKRFYLE [Q9P2T0 193-206], the normalised SPOT signal, Boehringer light units (BLU); mean over the file's lines of this peptide turned out to be 210 in assay [1] and 225 in assay [2].
On the same counts, the results for RSRSLHRPAKTSEL [O95996 1839-1852] are 187 and 170.
